Consider eight molecules from US8357523B2, “Beta-glucosidase variant enzymes and related polynucleotides” (Codexis, Inc., priority 2009, dated 2013).

Sequences and labels used below:
B1: 413 (protein)
chain: SARITQEGAAPAPMLHPEKWPRPATQRLIDPAVEKRVDALLKQLSVEEKVGQVIQGDIGTITPEDLRKYPLGSILAGGDSGPNGDDRAPPKEWLDLADAFYRVSLEKRPGHTPIPVLFGIDAVHGHNNIGSATIFPHNIALGMTRDTELLRRIGEVTAEEMAATGIDWTFAPALSVPRDDRWGRTYEGFSEDPEIVASYSAAIVEGFQGKYGSKDFMAPGRAVACAKHFLADGGTDQGRDQGDARISEDELIRIHNAGYPPAIDAGVLTVMASFSSWQGIKHHGHKQLLTDVLKGQMGFNGFIVGDWNAHDQVPGCTKFNCPTSLIAGLDMYMAADSWKQLYENTLAQVKDGTIPMARLDDAVRRILRVKVLAGLFEKPAPKDRPGLPGLETLGSPEHRAVGREAVRKSLVLLKNDKGTLPLSPKARVLVAGDGADNIGKQSGGWTISWQGTGNRNDEFPGATSILGGIRDAVADAGGSVEFDVAGQYKTKPDVAIVVFGENPYAEFRGDVETLEYQPDQKQDLTLLKKLKDQGIPVVAVFLSGRPMWVNPELNASDAFVAAWLPGTEGGGVADVLFTDKAGKVQYDFAGKLSYSWPRTAAQTTVNRGDADYNPLFAYGYGLTYKDKSKVGTLPEESGVPAEARQNAGIYFRAGALRLPGRFL
modifications: truncated; signal peptide F-10T
B2: 417 (protein)
chain: SAAITQEGAAPAAMLHPEKWPRPATQRLIDPAVEKRVDALLKQLSVEEKVGQVIQGDIGTITPEDLRKYPLGSILAGGDSGPNGDDRAPPKEWLDLADAFYRVSLEKRPGHTPIPVLFGIDAVHGHNNIGSATIFPHNIALGMTRDPELLRRIGEVTAEEMAATGIDWTFAPALSVPRDDRWGRTYEGFSEDPEIVASYSAAIVEGFQGKYGSKDFMAPGRAVACAKHFLADGGTDQGRDQGDARISEDELIRIHNAGYPPAIDAGVLTVMASFSSWQGIKHHGHKQLLTDVLKGQMGFNGFIVGDWNAHDQVPGCTKFNCPTSLIAGLDMYMAADSWKQLYENTLAQVKDGTIPMARLDDAVRRILRVKVLAGLFEKPAPKDRPGLPGLETLGSPEHRAVGREAVRKSLVLLKNDKGTLPLSPKARVLVAGDGADNIGKQSGGWTISWQGTGNRNDEFPGATSILGGIRDAVADAGGSVEFDVAGQYKTKPDVAIVVFGEEPYAEFQGDVETLEYQPDQKQDLTLLKKLKDQGIPVVAVFLSGRPMWVNPELNASDAFVAAWLPGTEGGGVADVLFTDKAGKVQHDFAGKLSYSWPRTAAQTTVNRGDADYNPLFAYGYGLTYKDKSKVGTLPEESGVPAEARQNAGIYFRAGALRLPGRFL
modifications: truncated; signal peptide F-10T
B3: 414 (protein)
chain: SARITQEGAAPAAMLHPEKWPRPATQRLIDPAVEKRVDALLKQLSVEEKVGQVIQGDIGTITPEDLRKYPLGSILAGGDSGPNGDDRAPPKEWLDLADAFYRVSLEKRPGHTPIPVLFGIDAVHGHNNIGSATIFPHNIALGMTRDPELLRRIGEVTAEEMAATGIDWTFAPALSVVRDDRWGRTYEGFSEDPEIVASYSAAYVEGFQGKYGSKDFMAPGRAVACAKHFLADGGTDQGRDQGDARISEDELIRIHNAGYPPAIDAGVLTVMASFSSWQGIKHHGHKQLLTDVLKGQMGFNGFIVGDWNAHDQVPGCTKFNCPTSLIAGLDMYMAADSWKQLYENTLAQVKDGTIPMARLDDAVRRILRVKVLAGLFEKPAPKDRPGLPGLETLGSPEHRTVGREAVRKSLVLLKNDKGTLPLSPKARVLVAGDGADNIGKQSGGWTISWQGTGNRNDEFPGATSILGGIRDAVADAGGSVEFDVAGQYKTKPDVAIVVFGENPYAEFRGDVETLEYQPDQKQDLSLLKKLKDQGIPVVAVFLSGRPMWVNPELNASDAFVAAWLPGTEGGGVADVLFTDKAGKVQHDFAGKLSYSWPRTAAQTTVNRGDADYNPLFAYGYGLTYKDKSKVGTLPEESGVPAEARQNAGIYFRAGALRLPGRFL
modifications: truncated; signal peptide F-10T
B4: 415 (protein)
chain: SAAITQEGAAPAPMLHPEKWPRPATQRLIDPAVEKRVDALLKQLSVEEKVGQVIQGDIGTITPEDLRKYPLGSILAGGDSGPNGDDRAPPKEWLDLADAFYRVSLEKRPGHTPIPVLFGIDAVHGHNHIGSATIFPHNIALGMTRDPELLRRIGEVTAEEMAATGIDWTFAPALSVPRDDRWGRTYEGFSEDPEIVASYSAAIVEGFQGKYGSKDFMAPGRAVACAKHFLADGGTDQGRDQGDARISEDELIRIHNAGYPPAIDAGVLTVMASFSSWQGIKHHGHKQLLTDVLKGQMGFNGFIVGDWNAHDQVPGCTKFNCPTSLIAGLDMYMAADSWKQLYENTLAQVKDGTIPMARLDDAVRRILRVKVLAGLFEKPAPKDRPGLPGLETLGSPEHRAVGREAVRKSLVLLKNDKGTLPLSPKARVLVAGDGADNIGKQSGGWTISWQGTGNRNDEFPGATSILGGIRDAVADAGGSVEFDVAGQYKTKPDVAIVVFGENPYAEFQGDVETLEYQPDQKQDLTLLKKLKDQGIPVVAVFLSGRPMWVNPELNASDAFVAAWLPGTEGGGVADVLFTDKAGKVQHDFAGKLSYSWPRTAAQTTVNRGDADYNPLFAYGYGLTYKDKSKVGTLPEESGVPAEARQNAGIYFRAGALRLPGRFL
modifications: truncated; signal peptide F-10T
B5: 421 (protein)
chain: SAAITQEGAAPAAMLHPEKWPRPATQRLIDPAVEKRVDALLKQLSVEEKVGQVIQGDIGTITPEDLRKYPLGSILAGGDSGPNGDDRAPPKEWLDLADAFYRVSLEKRDGHTPIPVLFGIDAVHGHNNIGSATIFPHNIALGMTRDPELLRRIGEVTAEEMAATGIDWTFAPALSVPRDDRWGRTYEGFSEDPEIVASYSAAIVEGFQGKYGSKDFMAPGRAVACAKHFLADGGTDQGRDQGDARISEDELIRIHNAGYPPAIDAGVLTVMASFSSWQGIKHHGHKQLLTDVLKGQMGFNGFIVGDWNAHDQVPGCTKFNCPTSLIAGLDMYMAADSWKQLYENTLAQVKDGTIPMARLDDAVRRILRVKVLAGLFEKPAPKDRPGLPGLETLGSPEHRTVGREAVRKSLVLLKNDKGTLPLSPKARVLVAGDGADNIGKQSGGWTISWQGTGNRNDEFPGATSILGGIRDAVADAGGSVEFDVAGQYKTKPDVAIVVFGENPYAEFRGDVETLEYQPDQKQDLTLLKKLKDQGIPVVAVFLSGRPMWVNPELNASDAFVAAWLPGTEGGGVADVLFTDKAGKVQYDFAGKLSYSWPRTAAQTTVNRGDADYNPLFAYGYGLTYKDKSKVGTLPEESGVPAEARQNAGIYFRAGALRLPGRFL
modifications: truncated; signal peptide F-10T
B6: 419 (protein)
chain: SARITQEGAAPAAMLHPEKWPRPATQRLIDPAVEKRVDALLKQLSVEEKVGQVIQGDIGTITPEDLRKYPLGSILAGGDSGPNGDDRAPPKEWLDLADAFYRVSLEKRDGHTPIPVLFGIDAVHGHNNIGSATIFPHNIALGMTRDTELLRRIGEVTAEEMAATGIDWTFAPALSVPRDDRWGRTYEGFSEDPEIVASYSAAIVEGFQGKYGSKDFMAPGRAVACAKHFLADGGTDQGRDQGDARISEDELIRIHNAGYPPAIDAGVLTVMASFSSWQGIKHHGHKQLLTDVLKGQMGFNGFIVGDWNAHDQVPGCTKFNCPTSLIAGLDMYMAADSWKQLYENTLAQVKDGTIPMARLDDAVRRILRVKVLAGLFEKPAPKDRPGLPGLETLGSPEHRAVGREAVRKSLVLLKNDKGTLPLSPKARVLVAGDGADNIGKQSGGWTISWQGTGNRNDEFPGATSILGGIRDAVADAGGSVEFDVAGQYKTKPDVAIVVFGEEPYAEFRGDVETLEYQPDQKQDLTLLKKLKDQGIPVVAVFLSGRPMWVNPELNASDAFVAAWLPGTEGGGVADVLFTDKAGKVQYDFAGKLSYSWPRTAAQTTVNRGDADYNPLFAYGYGLTYKDKSKVGTLPEESGVPAEARQNAGIYFRAGALRLPGRFL
modifications: truncated; signal peptide F-10T
B7: 416 (protein)
chain: SAAITQEGAAPAAMLHPEKWPRPATQRLIDPAVEKRVDALLKQLSVEEKVGQVIQGDIGTITPEDLRKYPLGSILAGGDSGPNGDDRAPPKEWLDLADAFYRVSLEKRDGHTPIPVLFGIDAVHGHNNIGSATIFPHNIALGMTRDPELLRRIGEVTAEEMAATGIDWTFAPALSVPRDDRWGRTYEGFSEDPEIVASYSAAIVEGFQGKYGSKDFMAPGRAVACAKHFLADGGTDQGRDQGDARISEDELIRIHNAGYPPAIDAGVLTVMASFSSWQGIKHHGHKQLLTDVLKGQMGFNGFIVGDWNAHDQVPGCTKFNCPTSLIAGLDMYMAADSWKQLYENTLAQVKEGTIPMARLDDAVRRILRVKVLAGLFEKPAPKDRPGLPGLETLGSPEHRAVGREAVRKSLVLLKNDKGTLPLSPKARVLVAGDGADNIGKQSGGWTISWQGTGNRNDEFPGATSILGGIRDAVADAGGSVEFDVAGQYKTKPDVAIVVFGEEPYAEFRGDVETLEYQPDQKQDLTLLKKLKDQGIPVVAVFLSGRPMWVNPELNASDAFVAAWLPGTEGGGVADVLFTDKAGKVQYDFAGKLSYSWPRTAAQTTVNRGDADYNPLFAYGYGLTYKDKSKVGTLPEESGVPAEARQNAGIYFRAGALRLPGRFL
modifications: truncated; signal peptide F-10T
B8: 418 (protein)
chain: SARITQEGAAPAPMLHPEKWPRPATQRLIDPAVEKRVDALLKQLSVEEKVGQVIQGDIGTITPEDLRKYPLGSILAGGDSGPNGDDRAPPKEWLDLADAFYRVSLEKRPGHTPIPVLFGIDAVHGHNNIGSATIFPHNIALGMTRDPELLRRIGEVTAEEMAATGIDWTFAPALSVVRDDRWGRTYEGFSEDPEIVASYSAAYVEGFQGKYGSKDFMAPGRAVACAKHFLADGGTDQGRDQGDARISEDELIRIHNAGYPPAIDAGVLTVMASFSSWQGIKHHGHKQLLTDVLKGQMGFNGFIVGDWNAHDQVPGCTKFNCPTSLIAGLDMYMAADSWKQLYENTLAQVKDGTIPMARLDDAVRRILRVKVLAGLFEKPAPKDRPGLPGLETLGSPEHRTVGREAVRKSLVLLKNDKGTLPLSPKARVLVAGDGADNIGKQSGGWTISWQGTGNRNDEFPGATSILGGIRDAVADAGGSVEFDVAGQYKTKPDVAIVVFGEEPYAEFRGDVETLEYQPDQKQDLTLLKKLKDQGIPVVAVFLSGRPMWVNPELNASDAFVAAWLPGTEGGGVADVLFTDKAGKVQHDFAGKLSYSWPRTAAQTTVNRGDADYNPLFAYGYGLTYKDKSKVGTLPEESGVPAEARQNAGIYFRAGALRLPGRFL
modifications: truncated; signal peptide F-10T, N-5H

The series in a line: High throughput cellobiose assay: fold improvement in cellobiase activity of CelA variants over a control enzyme (Tables 2A-2D, 3, 5, 6, 7). In kind it is biochemical. The conditions noted are these: 3.3 g/l cellobiose, 65° C. and pH 5 (incubation overnight); relative to Control #5, Variant No. 366 (SEQ ID NO: 9).
In the case of B1, the “Fold Improvement over Control Variant” value is recorded as “+++ (+++ = 2.1 to 3.0 fold improvement over control Variant No. 366)”.

Turning to B2, the “Fold Improvement over Control Variant” value is on record as “++ (++ = 1.1 to 2.0 fold improvement over control Variant No. 366)”.

As for B3, the “Fold Improvement over Control Variant” value was “++ (++ = 1.1 to 2.0 fold improvement over control Variant No. 366)”.

Consider B4, for which the “Fold Improvement over Control Variant” value is “++ (++ = 1.1 to 2.0 fold improvement over control Variant No. 366)”.

Regarding B5, the “Fold Improvement over Control Variant” value is on record as “++ (++ = 1.1 to 2.0 fold improvement over control Variant No. 366)”.

On to B6, for which the “Fold Improvement over Control Variant” value is “++ (++ = 1.1 to 2.0 fold improvement over control Variant No. 366)”.

Take B7: the “Fold Improvement over Control Variant” value is on record as “++ (++ = 1.1 to 2.0 fold improvement over control Variant No. 366)”.

For the molecule B8, the “Fold Improvement over Control Variant” value was “++ (++ = 1.1 to 2.0 fold improvement over control Variant No. 366)”.
